{"source": "paper doi:10.1101/2021.09.22.461404", "about": "(bioRxiv, 2021)", "biological_target": "the molecule itself", "assay": "crystal structure", "data": [{"protein": "closed-gate E71V KcsA (C-terminal tail removed by chymotrypsin) (domain or fragment) PMLSGLLARLVKLLLGRHGSALHWRAAGAATVLLVIVLLAGSYLAVLAERGAPGAQLITYPRALWWSVVTATTVGYGDLYPVTLWGRLVAVVVMVAGITSFGLVTAALATWFVGREQERRGH", "values": [{"measurement": "stoichiometry N", "result": 4}]}]}
